T1: PscF from strain PAO1 (Pseudomonas aeruginosa, UniProt P95434 1-85)
T1 chain: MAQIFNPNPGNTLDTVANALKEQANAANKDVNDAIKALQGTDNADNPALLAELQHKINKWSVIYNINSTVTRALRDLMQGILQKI

B1: P5B3 (human monoclonal antibody, IgG1) (antibody, V domains shown)
VH: EVQLVESGGGIVQPGGSLRLSCAASGFTFSSYWMHWVRQAPGKGLVWVSRINSDGSIINYADSVKGRFTISRDNAKKTLHLQMNSLRAEDTAVYYCAKDGVYDALDIWGQGTMVTVSS
VL: SYELTQPPSVSVSPGQTARITCSADALPNQYTYWYQQKPGQAPVLIMYKDSERPSGIPERFSGSSSGTTVTLTISGVQAEDEADYYCQSTDSRGTYVVFGGGTKLTVL
B2: P5G10 (human anti-PscF monoclonal antibody) (antibody, V domains shown)
VH: VQLQQWGAGLLKPSETLSLTCAVYGGSFSDYYWTWIRQAPGKGLEWIGENRHRGTTNYNPSLKGRVTISVDTSKNQFTLKVTSVTAADTAVYFCARQRGSSGGAPSGLDVWGQGTTVTVSS
VL: QSVLTQPPSASGTPGQRVTISCSGASSNIGTNYVFWYQQFPGTAPKLLIYRNGHRPSGVPDRFSGSKSGASASLAISGLRSDDEADYYCATWDDSLSSQVFGGGTKLTVL

Experiments:
biotinylated PcrV = biotinylated PcrV (Pseudomonas aeruginosa, UniProt G3XD49 1-294, biotin); assay: BLI
PscF from strain PAO1 = molecular target: T1, PscF from strain PAO1; assay: ELISA; competition with biotinylated P5G10

Binder	Kd (biotinylated PcrV) [nM]	IC50 (PscF from strain PAO1) [µg/mL]
B1	0.0239	
B2		0.46

— paper PMC12912723 (2026)
